# Measurements reported in US20240239901A1.
# How the values were obtained:
# [1] = target: human purified airway mucins (purified from induced sputum of five asthmatic donors, pooled); test: plate binding assay: purified mucins coated, FLAG-ITLN-1 with heparin (150 pg/mL as printed) in the binding buffer
# [2] = target: human purified airway mucins (purified from induced sputum of five asthmatic donors, pooled); test: plate binding assay: purified mucins coated, FLAG-ITLN-1 with dextran sulfate (150 pg/mL as printed) in the binding buffer
substance,measurement,setting,value
"FLAG-tagged recombinant ITLN-1 (Sigma, SRP8047) (from UniProt Q8WWA0 19-298) (ligand)",percent decrease of binding in the presence of heparin,[1],51.9%
same,percent decrease of binding in the presence of dextran sulfate,[2],74%
